Among the data in patent US20220010337A1 are IL-2 EC50 (nM) (approx.); SEAP induction in the HEK IL-2 reporter cell line, OD values, retold here.

In the test the target is IL2 receptors (on the HEK IL-2 reporter cell line) (human) (UniProt P01589). The test is described as follows: cell-based or functional assay.
Chain of IL2 receptors (on the HEK IL-2 reporter cell line) (human) (P01589 22-272, chain 1 of 3): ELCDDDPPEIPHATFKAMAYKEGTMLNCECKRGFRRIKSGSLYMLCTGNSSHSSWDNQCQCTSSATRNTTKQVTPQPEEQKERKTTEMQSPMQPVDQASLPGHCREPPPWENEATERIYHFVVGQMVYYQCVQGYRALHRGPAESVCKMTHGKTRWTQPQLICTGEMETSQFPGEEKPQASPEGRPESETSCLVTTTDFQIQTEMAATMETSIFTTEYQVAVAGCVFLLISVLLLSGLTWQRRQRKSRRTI
Chain of IL2 receptors (on the HEK IL-2 reporter cell line) (human) (P14784 27-551, chain 2 of 3, further chain): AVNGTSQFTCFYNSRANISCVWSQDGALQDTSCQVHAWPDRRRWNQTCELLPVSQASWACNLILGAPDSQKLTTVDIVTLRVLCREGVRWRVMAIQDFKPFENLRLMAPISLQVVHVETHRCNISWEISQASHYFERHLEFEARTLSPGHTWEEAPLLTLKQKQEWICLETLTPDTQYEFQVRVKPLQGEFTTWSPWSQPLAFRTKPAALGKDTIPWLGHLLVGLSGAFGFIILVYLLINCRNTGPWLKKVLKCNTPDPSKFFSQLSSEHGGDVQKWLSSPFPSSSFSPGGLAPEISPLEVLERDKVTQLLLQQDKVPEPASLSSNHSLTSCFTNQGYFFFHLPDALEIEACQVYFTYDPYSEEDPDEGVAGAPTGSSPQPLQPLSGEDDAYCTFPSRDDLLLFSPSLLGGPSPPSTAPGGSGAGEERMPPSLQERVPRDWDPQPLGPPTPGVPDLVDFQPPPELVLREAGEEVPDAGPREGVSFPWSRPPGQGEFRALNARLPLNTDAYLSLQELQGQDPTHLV
Chain of IL2 receptors (on the HEK IL-2 reporter cell line) (human) (P31785 23-369, chain 3 of 3, further chain): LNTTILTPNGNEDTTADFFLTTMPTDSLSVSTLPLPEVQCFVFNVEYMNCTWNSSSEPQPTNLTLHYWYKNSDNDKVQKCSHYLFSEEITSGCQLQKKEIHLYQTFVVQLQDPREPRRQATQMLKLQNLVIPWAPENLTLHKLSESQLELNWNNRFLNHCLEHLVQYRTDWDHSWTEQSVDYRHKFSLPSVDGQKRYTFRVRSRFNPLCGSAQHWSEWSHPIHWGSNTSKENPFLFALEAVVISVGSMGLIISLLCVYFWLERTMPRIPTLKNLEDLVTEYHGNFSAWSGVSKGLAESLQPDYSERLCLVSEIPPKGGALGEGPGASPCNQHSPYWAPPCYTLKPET
On to “Cas9-2xNLS-IL2(superkine) (from UniProt P60568 21-153)”, for which the IL-2 EC50 (nM) (approx.); SEAP induction in the HEK IL-2 reporter cell line, OD was 0.87 nM. With “Cas9-2xNLS-mouse WT IL2 (from UniProt P04351 21-169)”, the IL-2 EC50 (nM) (approx.); SEAP induction in the HEK IL-2 reporter cell line, OD was 0.34 nM.

As to IL2(SK)-SpyTag (ligand), the IL-2 EC50 (nM) (approx.); SEAP induction in the HEK IL-2 reporter cell line, OD came out at 0.037 nM. Regarding “SpyCatcher-Cas9(WT)-2xNLS:Spytag-IL2(SK) conjugate (from UniProt Q99ZW2 2-1368)”, the IL-2 EC50 (nM) (approx.); SEAP induction in the HEK IL-2 reporter cell line, OD was 0.0095 nM. For “recombinant mouse IL-2 (from UniProt P04351 21-169) (ligand)”, the IL-2 EC50 (nM) (approx.); SEAP induction in the HEK IL-2 reporter cell line, OD worked out at 0.0057 nM.
